The values that follow come from article doi:10.1101/2025.05.07.652675 (bioRxiv, 2025).

T1: SUMO-FtsZ (6×His-SUMO fusion of full length FtsZ) (E. coli, UniProt P0A9A6 1-383)
T1 sequence: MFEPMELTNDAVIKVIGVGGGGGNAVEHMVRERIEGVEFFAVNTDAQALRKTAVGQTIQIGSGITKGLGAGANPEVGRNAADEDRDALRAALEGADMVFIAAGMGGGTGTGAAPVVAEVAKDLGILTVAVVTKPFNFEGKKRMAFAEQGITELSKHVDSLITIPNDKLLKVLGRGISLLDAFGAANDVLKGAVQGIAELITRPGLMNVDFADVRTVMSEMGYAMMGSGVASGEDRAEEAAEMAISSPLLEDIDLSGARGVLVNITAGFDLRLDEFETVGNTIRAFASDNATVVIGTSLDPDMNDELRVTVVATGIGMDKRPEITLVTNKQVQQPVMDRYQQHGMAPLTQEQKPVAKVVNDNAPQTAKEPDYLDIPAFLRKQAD

B1: FtsZ (wild type, untagged) (natural protein)
chain: T1 sequence
B2: FtsZ^A376T (untagged) (natural protein)
chain: T1 sequence with A376T
B3: FtsZ^D360Y (untagged) (natural protein)
chain: T1 sequence with D360Y
B4: FtsZ^F285S (untagged) (natural protein)
chain: T1 sequence with F285S
B5: FtsZ^I323L (untagged) (natural protein)
chain: T1 sequence with I323L
B6: FtsZ^1-370 (domain or fragment)
chain: MFEPMELTNDAVIKVIGVGGGGGNAVEHMVRERIEGVEFFAVNTDAQALRKTAVGQTIQIGSGITKGLGAGANPEVGRNAADEDRDALRAALEGADMVFIAAGMGGGTGTGAAPVVAEVAKDLGILTVAVVTKPFNFEGKKRMAFAEQGITELSKHVDSLITIPNDKLLKVLGRGISLLDAFGAANDVLKGAVQGIAELITRPGLMNVDFADVRTVMSEMGYAMMGSGVASGEDRAEEAAEMAISSPLLEDIDLSGARGVLVNITAGFDLRLDEFETVGNTIRAFASDNATVVIGTSLDPDMNDELRVTVVATGIGMDKRPEITLVTNKQVQQPVMDRYQQHGMAPLTQEQKPVAKVVNDNAPQTAKEPD
B7: 6×His-ZapC (natural protein)
chain: not shown
B8: SUMO-FtsZ^316-383 (domain or fragment)
chain: GMDKRPEITLVTNKQVQQPVMDRYQQHGMAPLTQEQKPVAKVVNDNAPQTAKEPDYLDIPAFLRKQAD
B9: ZapC (untagged) (natural protein)
chain: not shown

Series [1] deals with 6×His-ZapC F30D K94D double mutant (E. coli, UniProt P75862 1-180, F30D | K94D). As to the kind of experiment: BLI.
Series [2] deals with the molecule itself. As to the kind of experiment: sedimentation of polymers by ultracentrifugation.
Series [3] concerns the molecule itself. As to the kind of experiment: negative stain electron microscopy.
Series [4] has as its target B7. As to the kind of experiment: BLI.
Series [5] deals with B1. As to the kind of experiment: BLI.
Series [6] concerns the target B4. As to the kind of experiment: BLI. In general terms: Biolayer interferometry detects binding as a change in optical thickness at a sensor tip.
For series [7], the target named is B5. As to the kind of experiment: co-sedimentation.
Series [8] has as its target B3. As to the kind of experiment: co-sedimentation.
The target of series [9] is B2. As to the kind of experiment: co-sedimentation.
For series [10], the target named is B9. As to the kind of experiment: BLI.
Series [11] has as its target T1, SUMO-FtsZ (6×His-SUMO fusion of full …). As to the kind of experiment: BLI.

Changes are numbered by the printed parent chain. In names and notes the source's numbering stands.

As for B1, the “Kd relative to wild-type ZapC (times higher)” value in [1] is 12 times. Further, in [2], the binding result is listed as “binds”. Regarding B2, the binding result in [3] is reported as “binds”. B3: in series [3], the binding result was “binds”. For B4, the binding result in series [2] is “binds”.

In the case of B5, in [3], the binding result was “binds”. Consider B6, for which the “binding affinity relative to wild-type FtsZ (fold lower)” value in series [4] is approximately 3 fold. Consider B7, for which the dissociation constant (Kd) (commonly the concentration at which binding is half-saturated) in series [5] is 0.39 µM; in series [6], 6.37 µM. Further, the binding result in series [7], in series [8] and in series [9] was “binds” in each case. Molecule B8 yielded a Kd in series [10] of 10 µM. In turn, B9 gave a Kd in series [11] of 1.5 µM.
